This is an account of results in paper PMC3182920.

For assay [1], the target named is HSV-1 glycoprotein D ectodomain truncated at residue 306 (gD306t). Put plainly: ELISA. Conditions: read at the highest gD(306t) concentration, about 300 µg/ml; N1V-MBP immobilized; parent: est. 1.5; read off a plot.
The target in the next assay is MAb CK41. The assay can be described thus: ELISA. The settings on record: sub-panel CK41 (conf); immobilized antibody captures N1V-MBP; detection with anti-MBP-HRP; parent: est. 100; read off a plot.
The next assay has as its target anti-nectin-1 Ig CK6. Put plainly: ELISA. Conditions: sub-panel CK6 (80-105); immobilized antibody captures N1V-MBP; detection with anti-MBP-HRP; parent: est. 100; read off a plot.
For assay [2], the target named is human nectin-1 ectodomain, nectin-1(346t) (human) (UniProt Q15223). Put plainly: SEC-MALS; SEC combined with multi-angle light scattering, purified proteins in solution; data not shown.
For assay [3], the target named is T1, human nectin-1 ectodomain, nectin-1(346t) (human), Q15223.
T1 chain: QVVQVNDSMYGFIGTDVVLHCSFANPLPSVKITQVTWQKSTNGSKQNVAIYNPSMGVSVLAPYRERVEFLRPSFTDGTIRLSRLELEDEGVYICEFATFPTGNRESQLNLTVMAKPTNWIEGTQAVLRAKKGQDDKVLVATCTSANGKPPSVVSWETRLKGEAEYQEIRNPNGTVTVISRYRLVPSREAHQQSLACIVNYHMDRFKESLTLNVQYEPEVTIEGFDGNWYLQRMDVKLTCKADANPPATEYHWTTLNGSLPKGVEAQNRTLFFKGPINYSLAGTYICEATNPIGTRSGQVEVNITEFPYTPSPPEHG
The assay is described as above. Conditions: remark: other sources report otherwise.

Turning to “nectin-1 V-domain fused to maltose binding protein (N1V-MBP), wild type (from UniProt Q15223-1) T66Q”, in assay [1], the response came out at 1.4 OD405nm. In addition, the percent of parent (% wt detection) with MAb CK41 worked out at 71; with anti-nectin-1 Ig CK6, 110.

On to “nectin-1 V-domain fused to maltose binding protein (N1V-MBP), wild type (from UniProt Q15223-1) S84Y”, for which the response in assay [1] was found to be 0.55 OD405nm. Also, the percent of parent (% wt detection) was 31 in the assay with MAb CK41 and 80 with anti-nectin-1 Ig CK6.

Take “nectin-1 V-domain fused to maltose binding protein (N1V-MBP), wild type (from UniProt Q15223-1) S84R”: the response in assay [1] stood at 1.3 OD405nm. In addition, the percent of parent (% wt detection) with MAb CK41 amounted to 120; with anti-nectin-1 Ig CK6 it was 90.

“HSV-1 KOS glycoprotein D ectodomain truncated at residue 285 (gD285t) (domain or fragment)”: the stoichiometry N in assay [2] was found to be 1.

In the case of “nectin-1 V-domain fused to maltose binding protein (N1V-MBP), wild type (from UniProt Q15223-1) F129W”, the response in assay [1] was 1.3 OD405nm. Moreover, the results for the percent of parent (% wt detection) with MAb CK41 and with anti-nectin-1 Ig CK6 were 55 and 91, respectively.

As for “nectin-1 V-domain fused to maltose binding protein (N1V-MBP), wild type (from UniProt Q15223-1) F129S”, the response in assay [1] amounted to 0.2 OD405nm. The percent of parent (% wt detection) with MAb CK41 amounted to 7; with anti-nectin-1 Ig CK6, 93.

Consider “nectin-1 V-domain fused to maltose binding protein (N1V-MBP), wild type (from UniProt Q15223-1) N82Y”, for which the response in assay [1] came out at 0.12 OD405nm. Moreover, in the assay with anti-nectin-1 Ig CK6, the percent of parent (% wt detection) was found to be 68.

B1: human nectin-1 ectodomain, nectin-1(346t), Q15223-1 31-346 (receptor)
chain: T1 chain
On to B1, for which, in assay [3], the stoichiometry N came out at 2.
